From patent US10052364B2, “Osteocalcin as a treatment for cognitive disorders” (THE TRUSTEES OF COLUMBIA UNIVERSITY IN THE CITY OF NEW YORK, priority 2013, dated 2018)

Tests used:
Osteocalcin-/- mice = experiment: Intracerebro-ventricular (ICV) infusion in Osteocalcin-/- mice, behavioral tests; type: in vivo, mouse
Method: FIG. 4. Administration of osteocalcin prevents anxiety and depression. (A-E) Behavioral analyses of adult Osteocalcin^−/− mice receiving osteocalcin through intracerebro-ventricular (ICV) infusions. (A) Light and Dark test, (B) Elevated plus maze test, (C) Open field test, (D) Forced swim test, and (E) Tail suspension test performed in a cohort of WT (n=7) and Osteocalcin^−/− infused with vehicle or osteocalcin (10 ng/hour). In each set of three bars, the rightmost bar represents the results following administration of osteocalcin.
Osteocalcin^−/−, Gprc6a^−/−, Osteocalcin-mCherry, and Osteocalcin floxed mice have been previously described (Ducy et al., 1996, Nature 382:448-452; Oury et al., 2011, Cell 144:796-809). Mouse genotypes were determined by PCR. For all experiments, controls were littermate female WT, Cre-expressing, or flox/flox. All mice were maintained on a pure 129-Sv genetic background except for the inducible deletion Osteocalcin model (mix background: 25% C57/BL6 and 75% 129sv). […] Leptin and osteocalcin content in sera and tissues were determined by ELISA.
Tail suspension testing was performed as previously described (Mayorga et al., 2001, J. Pharmacology Exper. Therapeutics 298:1101-1107; Stem et al., 1985, Psychopharmacology 85:367-370). […] The parameter recorded was the number of seconds spent immobile. Mice were scored by a highly trained observer, over a 5 min period, blind to the genotype of the mice.
Anxiety and locomotor activity of mice were measured using the open field test (David et al., 2009, Neuron 62:479-493). […] Mice were monitored throughout each test session by video tracking and analyzed using Matlab software. […] The overall motor activity was quantified as the total distance travelled. The anxiety was quantified measuring the number of rearings and the time and distance spent in the center versus periphery of the open field chamber (in %).
Each mouse was allowed to explore the apparatus for 5 min. Global activity was assessed by measuring the number of entries […] (David et al, 2009, Neuron 62:479-493). […]

[1] = tested on: mouse primary hindbrain neurons (MPHN); experiment: Calcium flux in primary hindbrain neurons; type: cell-based; conditions: MPHN treated with undercarboxylated or carboxylated osteocalcin
Method: For calcium imaging, primary hindbrain neurons seeded on 12 mm coverslips were allowed the appropriate time to form structural networks. These cultures were washed with HBSS and loaded with 2.5 μM FURA-2, AM calcium indicator for 45 minutes at room temperature, according to the manufacturer's protocol. Cells were then washed to remove excess indicator and incubated for 30 minutes to allow internalized esters to become de-esterified. 30 ng/ml of osteocalcin was prepared with the control buffer of 1×HBBS supplemented with 10 mM HEPES buffer and 2 mM CaCl2. Using a Zeiss microscope with a perfusion system, coverslips were first perfused with control and osteocalcin. After each stimulation, cells were depolarized with 50 mM KCl to determine the percentage of live cells being imaged. All treatments were recorded using two-photon laser scanning microscopy by Prairie Technologies and analyzed by Z axis profile plotting using ImageJ.
To determine if osteocalcin acts directly on neurons to modulate neurotransmitter synthesis, several types of assays were performed. First, brainstem and midbrain explants from WT and Gprc6a^−/− mice were generated. […] Third, to further confirm that osteocalcin signals in neurons of the hindbrain, calcium flux in MPHN treated with undercarboxylated or carboxylated osteocalcin (FIG. 3F) was measured. […]

B1: uncarboxylated osteocalcin: Recombinant osteocalcin bacterially produced, cleaved from the GST subunit; completely undercarboxylated at all three sites (protein, listed as Homo sapiens)
chain: MRALTLLALLALAALCIAGQAGAKPSGAESSKGAAFVSKQEGSEVVKRPRRYLYQWLGAPVPYPDPLEPRREVCELNPDCDELADHIGFQEAYRRFYGPV
modifications: uncarboxylated
notes: Recombinant osteocalcin bacterially produced, cleaved from the GST subunit; completely undercarboxylated at all three sites
Osteocalcin-/- mice; ICV 10 ng/hour, infused Osteocalcin-/- mice
  leakage of centrally delivered hormone into the general circulation (osteocalcin in blood): no leakage
Osteocalcin-/- mice; ICV 10 ng/hour, week-long treatment, Osteocalcin-/- mice
  anxiety and depression features (DLT, EPMT, OFT, FST, TST): corrected the anxiety and depression features
Osteocalcin-/- mice; direct administration to the brains of adult Osteocalcin-/- mice
  defects in anxiety, depression, learning, and memory: rescued defects in anxiety, depression, learning, and memory
[1]
  calcium fluxes in primary hindbrain neurons: induced changes in calcium fluxes
